Data: patent US20150064134A1

Tests used:
Test in all cases: cell-based or functional assay
CDK2/cyclinE(h) (human) = CDK2/cyclinE(h) (human) (UniProt P24941)
MST2(h) (human) = biological target: T1, MST2(h) (human) (UniProt Q13188)
T1 sequence (looked up): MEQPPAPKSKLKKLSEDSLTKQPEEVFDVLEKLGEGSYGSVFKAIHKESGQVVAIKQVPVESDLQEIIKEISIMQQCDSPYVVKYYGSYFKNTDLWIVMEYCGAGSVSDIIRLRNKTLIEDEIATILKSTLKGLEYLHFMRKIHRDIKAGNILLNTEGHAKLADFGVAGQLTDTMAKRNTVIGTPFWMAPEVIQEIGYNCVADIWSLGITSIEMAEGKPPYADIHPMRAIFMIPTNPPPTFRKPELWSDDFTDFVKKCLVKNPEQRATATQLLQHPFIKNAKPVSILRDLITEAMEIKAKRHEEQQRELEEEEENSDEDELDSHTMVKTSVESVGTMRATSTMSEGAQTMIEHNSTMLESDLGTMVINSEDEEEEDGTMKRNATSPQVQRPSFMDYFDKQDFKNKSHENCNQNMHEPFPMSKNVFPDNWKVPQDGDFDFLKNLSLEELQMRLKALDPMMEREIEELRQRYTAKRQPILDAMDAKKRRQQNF

Met(D1246N)(h) (human) = Met(D1246N)(h) (human) (UniProt P08581)
PKCµ(h) (human) = biological target: T2, PKCµ(h) (human) (UniProt Q15139)
T2 sequence (looked up): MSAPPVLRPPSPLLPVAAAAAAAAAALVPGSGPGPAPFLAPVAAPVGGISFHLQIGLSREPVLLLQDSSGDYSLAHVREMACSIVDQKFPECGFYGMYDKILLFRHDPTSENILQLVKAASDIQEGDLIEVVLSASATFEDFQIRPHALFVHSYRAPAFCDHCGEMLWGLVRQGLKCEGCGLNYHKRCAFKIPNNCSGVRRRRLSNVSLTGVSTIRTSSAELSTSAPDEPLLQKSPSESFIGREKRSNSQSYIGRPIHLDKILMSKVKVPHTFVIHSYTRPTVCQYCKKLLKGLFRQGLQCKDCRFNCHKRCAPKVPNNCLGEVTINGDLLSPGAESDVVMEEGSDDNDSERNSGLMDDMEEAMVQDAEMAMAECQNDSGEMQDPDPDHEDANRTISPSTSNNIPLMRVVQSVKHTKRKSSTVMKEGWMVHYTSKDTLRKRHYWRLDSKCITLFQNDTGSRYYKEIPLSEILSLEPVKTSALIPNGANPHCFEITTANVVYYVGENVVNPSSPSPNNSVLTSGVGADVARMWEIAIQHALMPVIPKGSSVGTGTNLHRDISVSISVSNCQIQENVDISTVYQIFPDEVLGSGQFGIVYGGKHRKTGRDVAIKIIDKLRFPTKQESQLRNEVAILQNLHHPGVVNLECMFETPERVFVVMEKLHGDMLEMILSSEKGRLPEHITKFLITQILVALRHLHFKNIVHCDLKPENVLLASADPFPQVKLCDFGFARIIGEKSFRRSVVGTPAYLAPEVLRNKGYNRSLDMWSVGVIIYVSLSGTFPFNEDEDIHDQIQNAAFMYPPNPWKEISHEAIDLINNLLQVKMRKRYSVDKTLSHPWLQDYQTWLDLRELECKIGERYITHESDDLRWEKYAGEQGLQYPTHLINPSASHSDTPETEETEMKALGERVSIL

NEK3(h) (human) = biological target: T3, NEK3(h) (human) (UniProt P51956)
T3 sequence (looked up): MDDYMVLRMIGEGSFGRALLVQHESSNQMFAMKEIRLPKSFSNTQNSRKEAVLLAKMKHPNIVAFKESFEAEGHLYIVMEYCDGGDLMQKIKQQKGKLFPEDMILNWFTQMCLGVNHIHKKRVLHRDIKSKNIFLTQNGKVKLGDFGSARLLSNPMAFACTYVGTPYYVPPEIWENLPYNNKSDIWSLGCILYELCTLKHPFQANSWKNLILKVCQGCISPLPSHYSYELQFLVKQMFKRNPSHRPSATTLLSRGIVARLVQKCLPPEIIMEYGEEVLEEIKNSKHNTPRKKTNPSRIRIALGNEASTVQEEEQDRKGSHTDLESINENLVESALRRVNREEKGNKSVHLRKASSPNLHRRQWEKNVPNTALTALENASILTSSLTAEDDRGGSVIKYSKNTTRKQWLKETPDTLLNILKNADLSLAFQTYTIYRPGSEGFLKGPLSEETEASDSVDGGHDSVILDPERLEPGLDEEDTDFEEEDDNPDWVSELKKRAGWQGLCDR

EphB4(h) (human) = EphB4(h) (human) (UniProt P54760)
Tie2(h) (human) = Tie2(h) (human) (UniProt Q02763)
DCAMKL2(h) (human) = biological target: T4, DCAMKL2(h) (human) (UniProt Q8N568)
T4 sequence (looked up): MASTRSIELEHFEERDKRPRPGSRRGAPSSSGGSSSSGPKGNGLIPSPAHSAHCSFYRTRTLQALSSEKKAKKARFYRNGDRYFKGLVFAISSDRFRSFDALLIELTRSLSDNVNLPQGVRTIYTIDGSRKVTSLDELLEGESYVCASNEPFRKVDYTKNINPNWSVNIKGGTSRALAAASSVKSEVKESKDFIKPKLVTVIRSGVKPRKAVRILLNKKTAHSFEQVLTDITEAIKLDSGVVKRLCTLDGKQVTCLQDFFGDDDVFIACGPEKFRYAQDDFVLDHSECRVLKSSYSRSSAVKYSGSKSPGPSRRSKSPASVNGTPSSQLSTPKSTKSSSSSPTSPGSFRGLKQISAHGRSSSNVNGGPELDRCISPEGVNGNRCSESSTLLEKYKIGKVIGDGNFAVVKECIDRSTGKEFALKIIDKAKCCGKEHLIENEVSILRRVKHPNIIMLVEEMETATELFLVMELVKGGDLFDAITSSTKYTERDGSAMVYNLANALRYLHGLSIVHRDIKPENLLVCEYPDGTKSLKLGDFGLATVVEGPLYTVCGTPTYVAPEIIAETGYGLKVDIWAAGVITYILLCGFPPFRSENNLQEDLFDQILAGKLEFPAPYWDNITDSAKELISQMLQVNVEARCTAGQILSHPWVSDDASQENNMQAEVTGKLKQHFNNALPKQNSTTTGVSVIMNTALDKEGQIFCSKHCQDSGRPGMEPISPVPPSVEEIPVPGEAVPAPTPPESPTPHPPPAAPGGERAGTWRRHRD

EphB4(h) (human), sequence (P54760 561-987 limits assumed): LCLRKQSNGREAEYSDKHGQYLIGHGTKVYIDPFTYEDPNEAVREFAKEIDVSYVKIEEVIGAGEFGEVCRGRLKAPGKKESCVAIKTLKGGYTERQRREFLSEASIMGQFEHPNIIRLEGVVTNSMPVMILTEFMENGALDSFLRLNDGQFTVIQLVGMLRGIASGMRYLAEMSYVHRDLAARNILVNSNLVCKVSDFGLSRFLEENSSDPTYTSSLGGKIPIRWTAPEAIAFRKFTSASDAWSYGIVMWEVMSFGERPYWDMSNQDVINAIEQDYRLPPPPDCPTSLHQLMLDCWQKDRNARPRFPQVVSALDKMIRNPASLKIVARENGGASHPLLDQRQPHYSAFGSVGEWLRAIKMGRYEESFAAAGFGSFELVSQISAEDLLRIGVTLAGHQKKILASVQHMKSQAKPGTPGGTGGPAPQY
Tie2(h) (human), sequence (Q02763 771-1124 limits assumed): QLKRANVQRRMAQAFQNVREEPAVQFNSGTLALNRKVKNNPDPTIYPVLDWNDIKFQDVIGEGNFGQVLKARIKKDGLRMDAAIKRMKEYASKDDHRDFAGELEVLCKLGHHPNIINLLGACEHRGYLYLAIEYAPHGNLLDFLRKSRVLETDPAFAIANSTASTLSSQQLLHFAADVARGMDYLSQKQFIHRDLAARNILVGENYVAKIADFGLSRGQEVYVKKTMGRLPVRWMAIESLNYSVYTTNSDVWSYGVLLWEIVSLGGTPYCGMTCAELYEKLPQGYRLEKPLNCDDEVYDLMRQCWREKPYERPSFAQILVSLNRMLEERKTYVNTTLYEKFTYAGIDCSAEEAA

Row | Substance | % activity at 100 µM (CDK2/cyclinE(h) (human)) [%] | % activity at 100 µM (MST2(h) (human)) [%] | % activity at 100 µM (Met(D1246N)(h) (human)) [%] | % activity at 100 µM (PKCµ(h) (human)) [%] | % activity at 100 µM (NEK3(h) (human)) [%] | % activity at 100 µM (EphB4(h) (human)) [%] | % activity at 100 µM (Tie2(h) (human)) [%] | % activity at 100 µM (DCAMKL2(h) (human)) [%]
1 | MMI-0400 (peptide) | 83 | 11 | 31 | 14 | 85 | 28 | 21 | 70
2 | MMI-0300 (peptide) | 94 | 19 | 82 | 22 | 92 | 44 | 26 | 81
3 | MMI-0500 (peptide) | 19 | 2 | 90 | 10 | 20 | 38 | 22 | 56
